Blank lines part the entries; values can stand above or below the binder they belong to.
Experiments:
[1] = target: HLA A2 on RMA-S/A2 cells (human); test: RMA-S/A2 HLA A2 stabilisation, BB7.2 FACS; 100 µM peptide; FIG 1(xxvi)
[2] = target: HLA A2 on RMA-S/A2 cells (human); test: RMA-S/A2 HLA A2 stabilisation, BB7.2 FACS; 100 µM peptide; ΔMean minus highest HepB ΔMean
[3] = target: HLA A2 on RMA-S/A2 cells (human); test: RMA-S/A2 HLA A2 stabilisation, BB7.2 FACS; 1 µM peptide; FIG 1(xii)
[4] = target: HLA A2 on RMA-S/A2 cells (human); test: RMA-S/A2 HLA A2 stabilisation, BB7.2 FACS; 1 µM peptide; ΔMean minus highest HepB ΔMean
[5] = target: HLA A2 on RMA-S/A2 cells (human); test: RMA-S/A2 HLA A2 stabilisation, BB7.2 FACS; 100 µM peptide; FIG 2(x)
[6] = target: HLA A2 on RMA-S/A2 cells (human); test: RMA-S/A2 HLA A2 stabilisation, BB7.2 FACS; 100 µM peptide; FIG 3(xxii)
[7] = target: HLA A2 on RMA-S/A2 cells (human); test: RMA-S/A2 HLA A2 stabilisation, BB7.2 FACS; 100 µM peptide; FIG 3(xxiii)
[8] = target: HLA A2 on RMA-S/A2 cells (human); test: RMA-S/A2 HLA A2 stabilisation, BB7.2 FACS; 10 µM peptide; FIG 2(xi)
[9] = target: HLA A2 on RMA-S/A2 cells (human); test: RMA-S/A2 HLA A2 stabilisation, BB7.2 FACS; 10 µM peptide; ΔMean minus highest HepB ΔMean
[10] = target: HLA A2 on RMA-S/A2 cells (human); test: RMA-S/A2 HLA A2 stabilisation, BB7.2 FACS; 100 µM peptide; FIG 3(xxiv)
[11] = target: HLA A2 on RMA-S/A2 cells (human); test: RMA-S/A2 HLA A2 stabilisation, BB7.2 FACS; 100 µM peptide; FIG 1(xxi)
[12] = target: HLA A2 on RMA-S/A2 cells (human); test: RMA-S/A2 HLA A2 stabilisation, BB7.2 FACS; 100 µM peptide; FIG 2(xix)
[13] = target: HLA A2 on RMA-S/A2 cells (human); test: RMA-S/A2 HLA A2 stabilisation, BB7.2 FACS; 100 µM peptide; FIG 3(xix)
[14] = target: HLA A2 on RMA-S/A2 cells (human); test: RMA-S/A2 HLA A2 stabilisation, BB7.2 FACS; 100 µM peptide; FIG 3(xx)
[15] = target: HLA A2 on RMA-S/A2 cells (human); test: RMA-S/A2 HLA A2 stabilisation, BB7.2 FACS; 100 µM peptide; FIG 1(xxv)
[16] = target: HLA A2 on RMA-S/A2 cells (human); test: RMA-S/A2 HLA A2 stabilisation, BB7.2 FACS; 100 µM peptide; FIG 3(xxi)
[17] = target: HLA A2 on RMA-S/A2 cells (human); test: RMA-S/A2 HLA A2 stabilisation, BB7.2 FACS; 100 µM peptide; FIG 1(xxii)
[18] = target: HLA A2 on RMA-S/A2 cells (human); test: RMA-S/A2 HLA A2 stabilisation, BB7.2 FACS; 100 µM peptide; FIG 3(xxv)

B1: CH20 (peptide)
peptide: ALMLLNNYV
modifications: not checked
Mean 2 [1]: 578 | Δ Mean [1]: 384 | High - B [2]: 138

B2: CH3 (peptide)
peptide: VLNLFFSAL
modifications: not checked
Mean 2 [3]: 419 | Δ Mean [3]: 224 | High - B [4]: 0

B3: CH21 (peptide)
peptide: TLWGSFVDV
modifications: not checked
Mean 2 [5]: 440 | Δ Mean [5]: 275 | High - B [2]: 121

B6: CH22 (peptide)
peptide: WLFDLRFSV
modifications: not checked
Mean 2 [8]: 390 | Δ Mean [8]: 227 | High - B [9]: 73

B8: CH15 (peptide)
peptide: YLTSYSPYV
modifications: not checked
Mean 2 [11]: 557 | Δ Mean [11]: 322 | High - B [2]: 76

B9: CH34 (peptide)
peptide: KLLKDHFDL
modifications: not checked
Mean 2 [12]: 390 | Δ Mean [12]: 235 | High - B [2]: 81

B12: CH19 (peptide)
peptide: LLLTLGYAV
modifications: not checked
Mean 2 [15]: 436 | Δ Mean [15]: 240 | High - B [2]: 0

B14: CH16 (peptide)
peptide: VQLAYVFDV
modifications: not checked
Mean 2 [17]: 433 | Δ Mean [17]: 232 | High - B [2]: 0

Further lines, results first:

Mean 2 [6]: 350 | Δ Mean [6]: 209 | High - B [2]: 48
B4: CH53 (peptide)
peptide: NLWSHYTDL
modifications: not checked

Δ Mean [7]: 251 | High - B [2]: 91
B5: CH54 (peptide)
peptide: ALWKENQAL
modifications: not checked

Mean 2 [10]: 411 | Δ Mean [10]: 258 | High - B [2]: 98
B7: CH55 (peptide)
peptide: ALWGHNVLL
modifications: not checked

Mean 2 [13]: 381 | Δ Mean [13]: 251 | High - B [2]: 91
B10: CH50 (peptide)
peptide: SLCAQSSYV
modifications: not checked

Mean 2 [14]: 311 | Δ Mean [14]: 179 | High - B [2]: 19
B11: CH51 (peptide)
peptide: NLSRQAFFA
modifications: not checked

Mean 2 [16]: 396 | Δ Mean [16]: 249 | High - B [2]: 89
B13: CH52 (peptide)
peptide: SLLEEHPVV
modifications: not checked

Mean 2 [18]: 383 | Δ Mean [18]: 240 | High - B [2]: 80
B15: CH56 (peptide)
peptide: NLAGGILSV
modifications: not checked
